Like-named read-outs stand apart in the source and are kept apart here.
B1: recombinant mouse mCD40 protein (receptor, UniProt P27512 20-193, looked up)
chain: LGQCVTCSDKQYLHDGQCCDLCQPGSRLTSHCTALEKTQCHPCDSGEFSAQWNREIRCHQHRHCEPNQGLRVKKEGTAESDTVCTCKEGQHCTSKDCEACAQHTPCIPGFGVMEMATETTDTVCHPCPVGFFSNQSSLFEKCYPWTSCEDKNLEVLQKGTSQTNVICGLKSRMR
B4: recombinant mouse mFLT3 protein (receptor, UniProt Q00342 28-544, looked up)
chain: NQDLPVIKCVLISHENNGSSAGKPSSYRMVRGSPEDLQCTPRRQSEGTVYEAATVEVAESGSITLQVQLATPGDLSCLWVFKHSSLGCQPHFDLQNRGIVSMAILNVTETQAGEYLLHIQSEAANYTVLFTVNVRDTQLYVLRRPYFRKMENQDALLCISEGVPEPTVEWVLCSSHRESCKEEGPAVVRKEEKVLHELFGTDIRCCARNALGRESTKLFTIDLNQAPQSTLPQLFLKVGEPLWIRCKAIHVNHGFGLTWELEDKALEEGSYFEMSTYSTNRTMIRILLAFVSSVGRNDTGYYTCSSSKHPSQSALVTILEKGFINATSSQEEYEIDPYEKFCFSVRFKAYPRIRCTWIFSQASFPCEQRGLEDGYSISKFCDHKNKPGEYIFYAENDDAQFTKMFTLNIRKKPQVLANASASQASCSSDGYPLPSWTWKKCSDKSPNCTEEIPEGVWNKKANRKVFGQWVSSSTLNMSEAGKGLLVKCCAYNSMGTSCETIFLNSPGPFPFIQDNIS

How the values were obtained:
[1] = biological target: T1, mFLT3L-Fc-CD40L chimeric protein (murine; mouse (printed as mFc), UniProt P49772 27-189; P01868 98-324 = IgG part; P27548 47-260, limits assumed); test: Octet biolayer interferometry, loading mCD40-his, analyte Conc. 142.9 nM, Full R2 0.995
T1 construct: extracellular domain;domain: hinge-CH2-CH3 Fc domain; Expressed in 293 cells, purified on protein A; multimer when not reduced; also called murine FLT3L-Fc-CD40L; mFLT3-Fc-CD40L
From the text: (§1) Octet was used to determine on-/off-rates and binding affinities to the target receptors.

[2] = biological target: B4; test: ELISA: plate-bound mFlt3 (10ug/ml), detection goat anti-mFlt3L (1:1000) and anti-goat IgG (10,000)
From the text: (§2) Recombinant mFLT3L protein was used to generate a standard curve. […] A mouse whole IgG was used to generate a standard curve. […] Recombinant mCD40L protein was used to generate a standard curve.

anti-mIgG [3] = biological target: T2, anti-mIgG; test: ELISA: plate-bound anti-mIgG (10ug/ml), detection anti-mIgG-HRP (1:1000)
T2 construct: capture antibody of the mFc ELISA; also called Capture Ab: anti-mIgG(10ug/ml)
From the text: Recombinant mFLT3L protein was used to generate a standard curve. […] A mouse whole IgG was used to generate a standard curve. […] Recombinant mGITRL protein was used to generate a standard curve.

anti-mIgG [4] = biological target: T2, anti-mIgG; test: as above; remark: listed apart in the source
From the text: Recombinant mFLT3L protein was used to generate a standard curve. […] A mouse whole IgG was used to generate a standard curve. […] Recombinant m4-1BBL protein was used to generate a standard curve.
Recombinant mFLT3L protein was used to generate a standard curve. […] A mouse whole IgG was used to generate a standard curve. […] Recombinant mOX40L protein was used to generate a standard curve.

[5] = biological target: T1, mFLT3L-Fc-CD40L chimeric protein; test: Octet biolayer interferometry, loading mFLT3-his, analyte Conc. 142.9 nM, Full R2 0.9654
From the text: as §1

[6] = biological target: B1; test: ELISA: plate-bound mCD40 (5ug/ml), detection anti-mCD40L (1:1000) and anti-goat IgG (1:10,000)
From the text: as §2

B1
Kd [1]: 14.2 nM
koff [1]: 0.000858 s⁻¹
kon [1]: 61800 M⁻¹ s⁻¹

B2: Standard mFlt3L (ligand)
chain: GTPDCYFSHSPISSNFKVKFRELTDHLLKDYPVTVAVNLQDEKHCKALWSLFLAQRWIEQLKTVAGSKMQTLLEDVNTEIHFVTSCTFQPLPECLRFVQTNISHLLKDTCTQLLALKPCIGKACQNFSRCLEVQCQPDSSTLLPPRSPIALEATELPEPRPRQ
notes: also called recombinant mFLT3L protein
binding result [2]: binds

B3: mFLT3L-Fc-GITRL chimeric protein (Fc fusion, murine;mouse (printed as mFc), UniProt P49772 27-189, looked up)
chain: GTPDCYFSHSPISSNFKVKFRELTDHLLKDYPVTVAVNLQDEKHCKALWSLFLAQRWIEQLKTVAGSKMQTLLEDVNTEIHFVTSCTFQPLPECLRFVQTNISHLLKDTCTQLLALKPCIGKACQNFSRCLEVQCQPDSSTLLPPRSPIALEATELPEPRPRQVPRDCGCKPCICTVPEVSSVFIFPPKPKDVLTITLTPKVTCVVVDISKDDPEVQFSWFVDDVEVHTAQTQPREEQFNSTFRSVSELPIMHQDWLNGKEFKCRVNSAAFPAPIEKTISKTKGRPKAPQVYTIPPPKEQMAKDKVSLTCMITDFFPEDITVEWQWNGQPAENYKNTQPIMNTNGSYFVYSKLNVQKSNWEAGNTFTCSVLHEGLHNHHTEKSLSHSPGKTSLKPTAIESCMVKFELSSSKWHMTSPKPHCVNTTSDGKLKILQSGTYLIYGQVIPVDKKYIKDNAPFVVQIYKKNDVLQTLMNDFQILPIGGVYELHAGDNIYLKFNSKDHIQKTNTYWGIILMPDLPFIS
notes: extracellular domain;domain: hinge-CH2-CH3 Fc domain; Expressed in 293 cells, purified on protein A; multimer when not reduced; also called murine FLT3L-Fc-GITRL; mFLT3-Fc-GITRL
EC50 (read off the curve) (anti-mIgG [3]): ~6 nM
EC50 (read off the curve) (anti-mIgG [4]): ~6 nM

B4
Kd [5]: 15.2 nM
koff [5]: 0.00312 s⁻¹
kon [5]: 205000 M⁻¹ s⁻¹

B5: Standard(mCD40L) (ligand, mouse, UniProt P27548 112-260, looked up)
ligand chain: MQRGDEDPQIAAHVVSEANSNAASVLQWAKKGYYTMKSNLVMLENGKQLTVKREGLYYVYTQVTFCSNREPSSQRPFIVGLWLKPSSGSERILLKAANTHSSSQLCEQQSVHLGGVFELQAGASVFVNVTEASQVIHRVGFSSFGLLKL
notes: recombinant soluble protein; also called recombinant mCD40L protein
EC50 (read off the curve) [6]: ~10 nM

— patent US20240122983A1 (SHATTUCK LABS, published 2024)
